Source: publication PMC4522062, “Obatoclax is a direct and potent antagonist of membrane-restricted Mcl-1 and is synthetic lethal with treatment that induces Bim” (BMC Cancer, 2015)

What was measured:
[1] = molecular target: N-Flag-human Mcl-1 C16A, C286A, Δ328-361, with a carboxyl-terminal hexa-His tag and a terminal Cys (human) (UniProt Q07820)
[2] = molecular target: the molecule itself; assay: cross-linking; Bak conjugated onto liposomes (2 mol% Mal-PEG3-PE, 1 mol% DOGS-NTA-Ni, 2 mg lipid/ml), 100 mM KCl, 10 mM Hepes pH 7.0, 1 h at room temperature with Bim BH3 peptide (…-OH); proteoliposomes recovered by centrifugation; 0.5 mM BS3, 1 h at room temperature; SDS-PAGE and anti-Bak immunoblot

Sequence of N-Flag-human Mcl-1 C16A, C286A, Δ328-361, with a carboxyl-terminal hexa-His tag and a terminal Cys (human) (Q07820 1-327 C16A/C286A): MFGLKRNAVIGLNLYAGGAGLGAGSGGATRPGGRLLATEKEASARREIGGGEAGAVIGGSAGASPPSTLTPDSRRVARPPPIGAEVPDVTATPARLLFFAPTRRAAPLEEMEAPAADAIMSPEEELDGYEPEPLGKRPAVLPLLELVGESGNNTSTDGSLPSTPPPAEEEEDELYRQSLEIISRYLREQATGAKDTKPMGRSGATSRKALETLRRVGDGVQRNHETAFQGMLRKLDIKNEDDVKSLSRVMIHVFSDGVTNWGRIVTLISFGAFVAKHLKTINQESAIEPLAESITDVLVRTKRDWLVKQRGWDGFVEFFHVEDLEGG

| tBid-induced (40 nM), Bak-dependent calcein release from proteoliposomes: molar excess of Noxa BH3 peptide relative to Mcl-1 that overcame the inhibition by Mcl-1 (molar excess relative to Mcl-1) [1] | Molecule | binding result [2] |
| --- | --- | --- |
| 2.5 | Noxa BH3 peptide | – |
| – | N-Flag-human Bak C14A, C166A, ΔC186-211, with a carboxyl-terminal hexa-His tag and a terminal Cys (domain or fragment, UniProt Q16611 1-185, looked up, terminal Cys linked covalently to the liposome lipid Mal-PEG3-PE (where that lipid was included), Bak, human; the C-terminal TM segment (ΔC186-211) replaced by 6 His residues and a unique terminal Cys; The pET151 vector may add further N-terminal residues; also called BakΔC*; surface anchored Bak; source: E. coli BL21Star (pET151 vector), purified from the soluble extract on Ni2+-NTA resin; not shown: His6 followed by a terminal Cys, C-terminal, kept) MASGQGPGPPRQEAGEPALPSASEEQVAQDTEEVFRSYVFYRHQQEQEAEGVAAPADPEMVTLPLQPSSTMGQVGRQLAIIGDDINRRYDSEFQTMLQHLQPTAENAYEYFTKIATSLFESGINWGRVVALLGFGYRLALHVYQHGLTGFLGQVTRFVVDFMLHHAIARWIAQRGGWVAALNLGN | binds |
